Results reported in the supplement of paper PMC9112550, “Optimization of the antimicrobial peptide Bac7 by deep mutational scanning” (BMC Biology, 2022).

Test system: Escherichia coli TOP10
Experiment: shrunken log2 fold change of peptide-encoding DNA abundance (4.5 h post-induction vs induction); higher = less antimicrobial activity (less host growth inhibition)
Settings: time post-induction: 4.5 h; library: site-saturation at positions 5, 18, 19, 20
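Also: peptides expressed intracellularly from a pBAD plasmid library in pooled LB shake-flask culture, induced with 0.3% L-arabinose, DNA abundance read by NGS, three biological replicates, DESeq2 with apeglm shrinkage.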

| Sequence | shrunken log2 fold change |
| --- | --- |
| RRIRYRPPRLPRPRPRPYHIPRP | -0.23 |
| RRIRYRPPRLPRPRPRPYICPRP | -0.234 |
| RRIRYRPPRLPRPRPRPYLFPRP | -0.687 |
| RRIRYRPPRLPRPRPRPYLRPRP | -0.00962 |
| RRIRYRPPRLPRPRPRPYLVPRP | -0.536 |
| RRIRYRPPRLPRPRPRPYMWPRP | -0.43 |
| RRIRYRPPRLPRPRPRPYNTPRP | -1.88 |
| RRIRYRPPRLPRPRPRPYNYPRP | -1.3 |
| RRIRYRPPRLPRPRPRPYPQPRP | -0.466 |
| RRIRYRPPRLPRPRPRPYQRPRP | -0.00973 |
| RRIRYRPPRLPRPRPRPYRDPRP | -0.0114 |
| RRIRYRPPRLPRPRPRPYRIPRP | -0.731 |
| RRIRYRPPRLPRPRPRPYRKPRP | -0.178 |
| RRIRYRPPRLPRPRPRPYTGPRP | -0.0103 |
| RRIRYRPPRLPRPRPRPYTLPRP | -0.213 |
| RRIRYRPPRLPRPRPRPYTPPRP | -1.28 |
| RRIRYRPPRLPRPRPRPYVAPRP | -0.206 |
| RRIRYRPPRLPRPRPRPYVMPRP | -1.04 |
| RRIRYRPPRLPRPRPRPYWIPRP | -0.222 |
| RRIRYRPPRLPRPRPRPYYWPRP | -0.111 |
